Results: publication PMC5123574, “Redox cofactors insertion in prokaryotic molybdoenzymes occurs via a conserved folding mechanism” (Scientific Reports, 2016)

Biological target: the molecule itself
Assay: SAXS; SEC-coupled SAXS (SWING beamline, SOLEIL); ~25 mg/mL in Tris-HCl 40 mM pH 7.6, 8% glycerol, online Agilent BioSEC-3 300 Å column; Mw from SAXSMoW, volume from DAMMIF; NarGH heterodimers into a trimer

Row | Protein | stoichiometry N | binding result
1 | holoNarGH, Moco-loaded soluble catalytic NarGH complex of nitrate reductase A (complex, E. coli, NarG, nitrate-reducing catalytic subunit of respiratory nitrate reductase A, E. coli; carries Mo-bisPGD and the [4Fe-4S] cluster FS0; Printed residue numbers (Arg108, Glu794) follow the crystal structure 1q16; NarH, electron-transfer subunit of respiratory nitrate reductase A, E. coli; carries four Fe/S clusters (FS1-4); The unit written here is the NarGH heterodimer (~200 kDa), which is trimeric …) chain 1: MSKFLDRFRYFKQKGETFADGHGQLLNTNRDWEDGYRQRWQHDKIVRSTHGVNCTGSCSWKIYVKNGLVTWETQQTDYPRTRPDLPNHEPRGCPRGASYSWYLYSANRLKYPMMRKRLMKMWREAKALHSDPVEAWASIIEDADKAKSFKQARGRGGFVRSSWQEVNELIAASNVYTIKNYGPDRVAGFSPIPAMSMVSYASGARYLSLIGGTCLSFYDWYCDLPPASPQTWGEQTDVPESADWYNSSYIIAWGSNVPQTRTPDAHFFTEVRYKGTKTVAVTPDYAEIAKLCDLWLAPKQGTDAAMALAMGHVMLREFHLDNPSQYFTDYVRRYTDMPMLVMLEERDGYYAAGRMLRAADLVDALGQENNPEWKTVAFNTNGEMVAPNGSIGFRWGEKGKWNLEQRDGKTGEETELQLSLLGSQDEIAEVGFPYFGGDGTEHFNKVELENVLLHKLPVKRLQLADGSTALVTTVYDLTLANYGLERGLNDVNCATSYDDVKAYTPAWAEQITGVSRSQIIRIAREFADNADKTHGRSMIIVGAGLNHWYHLDMNYRGLINMLIFCGCVGQSGGGWAHYVGQEKLRPQTGWQPLAFALDWQRPARHMNSTSYFYNHSSQWRYETVTAEELLSPMADKSRYTGHLIDFNVRAERMGWLPSAPQLGTNPLTIAGEAEKAGMNPVDYTVKSLKEGSIRFAAEQPENGKNHPRNLFIWRSNLLGSSGKGHEFMLKYLLGTEHGIQGKDLGQQGGVKPEEVDWQDNGLEGKLDLVVTLDFRLSSTCLYSDIILPTATWYEKDDMNTSDMHPFIHPLSAAVDPAWEAKSDWEIYKAIAKKFSEVCVGHLGKETDIVTLPIQHDSAAELAQPLDVKDWKKGECDLIPGKTAPHIMVVERDYPATYERFTSIGPLMEKIGNGGKGIAWNTQSEMDLLRKLNYTKAEGPAKGQPMLNTAIDAAEMILTLAPETNGQVAVKAWAALSEFTGRDHTHLALNKEDEKIRFRDIQAQPRKIISSPTWSGLEDEHVSYNAGYTNVHELIPWRTLSGRQQLYQDHQWMRDFGESLLVYRPPIDTRSVKEVIGQKSNGNQEKALNFLTPHQKWGIHSTYSDNLLMLTLGRGGPVVWLSEADAKDLGIADNDWIEVFNSNGALTARAVVSQRVPAGMTMMYHAQERIVNLPGSEITQQRGGIHNSVTRITPKPTHMIGGYAHLAYGFNYYGTVGSNRDEFVVVRKMKNIDWLDGEGNDQVQESVK chain 2: MKIRSQVGMVLNLDKCIGCHTCSVTCKNVWTSREGVEYAWFNNVETKPGQGFPTDWENQEKYKGGWIRKINGKLQPRMGNRAMLLGKIFANPHLPGIDDYYEPFDFDYQNLHTAPEGSKSQPIARPRSLITGERMAKIEKGPNWEDDLGGEFDKLAKDKNFDNIQKAMYSQFENTFMMYLPRLCEHCLNPACVATCPSGAIYKREEDGIVLIDQDKCRGWRMCITGCPYKKIYFNWKSGKSEKCIFCYPRIEAGQPTVCSETCVGRIRYLGVLLYDADAIERAASTENEKDLYQRQLDVFLDPNDPKVIEQAIKDGIPLSVIEAAQQSPVYKMAMEWKLALPLHPEYRTLPMVWYVPPLSPIQSAADAGELGSNGILPDVESLRIPVQYLANLLTAGDTKPVLRALKRMLAMRHYKRAETVDGKVDTRALEEVGLTEAQAQEMYRYLAIANYEDRFVVPSSHRELAREAFPEKNGCGFTFGDGCHGSDTKFNLFNSRRIDAIDVTSKTEPHP | 3 | –
2 | NarG_(R108A)H_(His6) complex (complex, E. coli, NarG, catalytic subunit of respiratory nitrate reductase A, E. coli, with R108A; NarH, electron-transfer subunit of respiratory nitrate reductase A, E. coli; The unit is the NarGH heterodimer; His6 put on NarH from the plasmid name; also called R108A NarGH; NarGH variant; source: E. coli with pNarG_(R108A)H_(His6)J, purified) chain 1: MSKFLDRFRYFKQKGETFADGHGQLLNTNRDWEDGYRQRWQHDKIVRSTHGVNCTGSCSWKIYVKNGLVTWETQQTDYPRTRPDLPNHEPRGCPRGASYSWYLYSANALKYPMMRKRLMKMWREAKALHSDPVEAWASIIEDADKAKSFKQARGRGGFVRSSWQEVNELIAASNVYTIKNYGPDRVAGFSPIPAMSMVSYASGARYLSLIGGTCLSFYDWYCDLPPASPQTWGEQTDVPESADWYNSSYIIAWGSNVPQTRTPDAHFFTEVRYKGTKTVAVTPDYAEIAKLCDLWLAPKQGTDAAMALAMGHVMLREFHLDNPSQYFTDYVRRYTDMPMLVMLEERDGYYAAGRMLRAADLVDALGQENNPEWKTVAFNTNGEMVAPNGSIGFRWGEKGKWNLEQRDGKTGEETELQLSLLGSQDEIAEVGFPYFGGDGTEHFNKVELENVLLHKLPVKRLQLADGSTALVTTVYDLTLANYGLERGLNDVNCATSYDDVKAYTPAWAEQITGVSRSQIIRIAREFADNADKTHGRSMIIVGAGLNHWYHLDMNYRGLINMLIFCGCVGQSGGGWAHYVGQEKLRPQTGWQPLAFALDWQRPARHMNSTSYFYNHSSQWRYETVTAEELLSPMADKSRYTGHLIDFNVRAERMGWLPSAPQLGTNPLTIAGEAEKAGMNPVDYTVKSLKEGSIRFAAEQPENGKNHPRNLFIWRSNLLGSSGKGHEFMLKYLLGTEHGIQGKDLGQQGGVKPEEVDWQDNGLEGKLDLVVTLDFRLSSTCLYSDIILPTATWYEKDDMNTSDMHPFIHPLSAAVDPAWEAKSDWEIYKAIAKKFSEVCVGHLGKETDIVTLPIQHDSAAELAQPLDVKDWKKGECDLIPGKTAPHIMVVERDYPATYERFTSIGPLMEKIGNGGKGIAWNTQSEMDLLRKLNYTKAEGPAKGQPMLNTAIDAAEMILTLAPETNGQVAVKAWAALSEFTGRDHTHLALNKEDEKIRFRDIQAQPRKIISSPTWSGLEDEHVSYNAGYTNVHELIPWRTLSGRQQLYQDHQWMRDFGESLLVYRPPIDTRSVKEVIGQKSNGNQEKALNFLTPHQKWGIHSTYSDNLLMLTLGRGGPVVWLSEADAKDLGIADNDWIEVFNSNGALTARAVVSQRVPAGMTMMYHAQERIVNLPGSEITQQRGGIHNSVTRITPKPTHMIGGYAHLAYGFNYYGTVGSNRDEFVVVRKMKNIDWLDGEGNDQVQESVK chain 2: MKIRSQVGMVLNLDKCIGCHTCSVTCKNVWTSREGVEYAWFNNVETKPGQGFPTDWENQEKYKGGWIRKINGKLQPRMGNRAMLLGKIFANPHLPGIDDYYEPFDFDYQNLHTAPEGSKSQPIARPRSLITGERMAKIEKGPNWEDDLGGEFDKLAKDKNFDNIQKAMYSQFENTFMMYLPRLCEHCLNPACVATCPSGAIYKREEDGIVLIDQDKCRGWRMCITGCPYKKIYFNWKSGKSEKCIFCYPRIEAGQPTVCSETCVGRIRYLGVLLYDADAIERAASTENEKDLYQRQLDVFLDPNDPKVIEQAIKDGIPLSVIEAAQQSPVYKMAMEWKLALPLHPEYRTLPMVWYVPPLSPIQSAADAGELGSNGILPDVESLRIPVQYLANLLTAGDTKPVLRALKRMLAMRHYKRAETVDGKVDTRALEEVGLTEAQAQEMYRYLAIANYEDRFVVPSSHRELAREAFPEKNGCGFTFGDGCHGSDTKFNLFNSRRIDAIDVTSKTEPHP | – | binds
3 | apoNarGH, cofactor-less NarGH complex produced in absence of NarJ (complex, E. coli, NarG, nitrate-reducing catalytic subunit of respiratory nitrate reductase A, E. coli; here devoid of FS0 and Moco; Printed residue numbers follow the crystal structure 1q16; NarH, electron-transfer subunit of respiratory nitrate reductase A, E. coli; The unit is the NarGH heterodimer; His6 put on NarH from the plasmid name; also called Moco-less His-tagged NarGH complex) chain 1: MSKFLDRFRYFKQKGETFADGHGQLLNTNRDWEDGYRQRWQHDKIVRSTHGVNCTGSCSWKIYVKNGLVTWETQQTDYPRTRPDLPNHEPRGCPRGASYSWYLYSANRLKYPMMRKRLMKMWREAKALHSDPVEAWASIIEDADKAKSFKQARGRGGFVRSSWQEVNELIAASNVYTIKNYGPDRVAGFSPIPAMSMVSYASGARYLSLIGGTCLSFYDWYCDLPPASPQTWGEQTDVPESADWYNSSYIIAWGSNVPQTRTPDAHFFTEVRYKGTKTVAVTPDYAEIAKLCDLWLAPKQGTDAAMALAMGHVMLREFHLDNPSQYFTDYVRRYTDMPMLVMLEERDGYYAAGRMLRAADLVDALGQENNPEWKTVAFNTNGEMVAPNGSIGFRWGEKGKWNLEQRDGKTGEETELQLSLLGSQDEIAEVGFPYFGGDGTEHFNKVELENVLLHKLPVKRLQLADGSTALVTTVYDLTLANYGLERGLNDVNCATSYDDVKAYTPAWAEQITGVSRSQIIRIAREFADNADKTHGRSMIIVGAGLNHWYHLDMNYRGLINMLIFCGCVGQSGGGWAHYVGQEKLRPQTGWQPLAFALDWQRPARHMNSTSYFYNHSSQWRYETVTAEELLSPMADKSRYTGHLIDFNVRAERMGWLPSAPQLGTNPLTIAGEAEKAGMNPVDYTVKSLKEGSIRFAAEQPENGKNHPRNLFIWRSNLLGSSGKGHEFMLKYLLGTEHGIQGKDLGQQGGVKPEEVDWQDNGLEGKLDLVVTLDFRLSSTCLYSDIILPTATWYEKDDMNTSDMHPFIHPLSAAVDPAWEAKSDWEIYKAIAKKFSEVCVGHLGKETDIVTLPIQHDSAAELAQPLDVKDWKKGECDLIPGKTAPHIMVVERDYPATYERFTSIGPLMEKIGNGGKGIAWNTQSEMDLLRKLNYTKAEGPAKGQPMLNTAIDAAEMILTLAPETNGQVAVKAWAALSEFTGRDHTHLALNKEDEKIRFRDIQAQPRKIISSPTWSGLEDEHVSYNAGYTNVHELIPWRTLSGRQQLYQDHQWMRDFGESLLVYRPPIDTRSVKEVIGQKSNGNQEKALNFLTPHQKWGIHSTYSDNLLMLTLGRGGPVVWLSEADAKDLGIADNDWIEVFNSNGALTARAVVSQRVPAGMTMMYHAQERIVNLPGSEITQQRGGIHNSVTRITPKPTHMIGGYAHLAYGFNYYGTVGSNRDEFVVVRKMKNIDWLDGEGNDQVQESVK chain 2: MKIRSQVGMVLNLDKCIGCHTCSVTCKNVWTSREGVEYAWFNNVETKPGQGFPTDWENQEKYKGGWIRKINGKLQPRMGNRAMLLGKIFANPHLPGIDDYYEPFDFDYQNLHTAPEGSKSQPIARPRSLITGERMAKIEKGPNWEDDLGGEFDKLAKDKNFDNIQKAMYSQFENTFMMYLPRLCEHCLNPACVATCPSGAIYKREEDGIVLIDQDKCRGWRMCITGCPYKKIYFNWKSGKSEKCIFCYPRIEAGQPTVCSETCVGRIRYLGVLLYDADAIERAASTENEKDLYQRQLDVFLDPNDPKVIEQAIKDGIPLSVIEAAQQSPVYKMAMEWKLALPLHPEYRTLPMVWYVPPLSPIQSAADAGELGSNGILPDVESLRIPVQYLANLLTAGDTKPVLRALKRMLAMRHYKRAETVDGKVDTRALEEVGLTEAQAQEMYRYLAIANYEDRFVVPSSHRELAREAFPEKNGCGFTFGDGCHGSDTKFNLFNSRRIDAIDVTSKTEPHP | 3 | –
